From patent US6436691B1, “Chemical compounds” (Zeneca Limited, priority 1995, dated 2002)
Residue numbers refer to the chain shown, from its start. Names and notes keep the numbering of the source.

B1: [I201T, D253R]: HCPB mutant with I201T and D253R, (His)6-c-myc tag (protein, UniProt P15086 111-417, looked up, variant I201T D253R)
Carboxypeptidase B: ATGHSYEKYNKWETIEAWTQQVATENPALISRSVIGTTFEGRAIYLLKVGKAGQNKPAIFMDCGFHAREWISPAFCQWFVREAVRTYGREIQVTELLDKLDFYVLPVLNIDGYIYTWTKSRFWRKTRSTHTGSSCIGTDPNRNFDAGWCEIGASRNPCDETYCGPAAESEKETKALADFIRNKLSSIKAYLTIHSYSQMMTYPYSYAYKLGENNAELNALAKATVKELASLHGTKYTYGPGATTIYPAAGGSRDWAYDQGIRYSFTFELRDTGRYGFLLPESQIRATCEETFLAIKYVASYVLEHLY
modifications: (His)6-c-myc tag
B2: [G251T,D253R]HCPB: HCPB mutant with G251T and D253R, (His)6-c-myc tag (protein, UniProt P15086 111-417, looked up, variant G251T D253R)
Carboxypeptidase B: B1 Carboxypeptidase B with T201I, G251T
modifications: (His)6-c-myc tag
B3: [G251S, D253K]: HCPB mutant with G251S and D253K, (His)6-c-myc tag (protein, UniProt P15086 111-417, looked up, variant G251S D253K)
Carboxypeptidase B: B1 Carboxypeptidase B with T201I, G251S, R253K
modifications: (His)6-c-myc tag

Legend:
Type in all cases: biochemical
[1] = Activity against Hipp-Glu in crude E. coli periplasmic shockate relative to D253K or D253R HCPB (Example 16)
From the text: (§1) A number of other mutant HCPBs have been constructed in a similar manner to the methods described in Reference Examples 7 and 8, and Examples 12, 13, 14 and 15. In each case oligos were constructed to introduce specific changes in the gene sequence by methods similar to those described above. In some cases additional mutations were identified upon complete sequencing of the mutated gene, and these were presumably introduced during the PCR reactions. Mutants with enzyme activity against substrate analogues (see Example 18 below) have been identified, and examples of these are given in Table 4 below. […] This material is subsequently referred to as periplasmic shockate or shockate and is prepared by the following procedure.
(§2) 1. A single colony was used to inoculate 75 ml of L-broth nutrient media containing 10 μg/ml tetracycline and arabinose to a final concentration of 0.01% (w/v). Incubation was performed at 20° C. with shaking (250 rpm) for about 60 hours.
(§3) 2. The cells were then harvested by centrifugation at 4° C.
(§4) 3. The cell pellet was re-suspended in 300 micro-liters of 20% sucrose (w/v) containing 1 mM EDTA in 200 mM Tris-HCl at pH7.5, and incubated at room-temperature for 15 minutes.
(§5) 4. Periplasmic shockate was generated by the addition of 450 micro-liters of distilled water, and a further incubation at room-temperature for 15 minutes.
(§6) 5. Cellular remains were removed by centrifugation, and the supernatant assayed for enzyme activity as soon as possible after preparation and kept at 4° C. prior to assay.
The activity of [G251T,D253K]HCPB was measured using the assay conditions described in Example 17 but using either 50 μl of a neat or 1 in 10 or 1 in 100 dilution of [G251T,D253K]HCPB crude E.coli periplasmic shockate (shockate) sample in place of purified enzyme. Samples were incubated for 24 h at 37° C. […] The amount of Hippuric acid produced in 24 h was quantified by HPLC as described in Example 17 and the results are shown in Table 6 and are expressed as the percentage conversion of substrate into product in 24 h at 37° C.

[2] = Activity against Hipp-Asp in crude E. coli periplasmic shockate relative to D253K or D253R HCPB (Example 16)
From the text: as §1, §2, §3, §4, §5, §6
(§7) The activity of [G251T,D253K]HCPB was measured using the assay conditions described in Example 17 but using either 50 μl of a neat or 1 in 10 or 1 in 100 dilution of [G251T,D253K]HCPB crude E.coli periplasmic shockate (shockate) sample in place of purified enzyme. Samples were incubated for 24 h at 37° C. […] For other HCPB mutants, the reaction volume was 250 μl and contained 125 μl of neat shockate or 1 in 50 dilution of shockate. The shockate samples were prepared as described in Example 16. The amount of Hippuric acid produced in 24 h was quantified by HPLC as described in Example 17 and the results are shown in Table 6 and are expressed as the percentage conversion of substrate into product in 24 h at 37° C.

[3] = Km and kcat of HCPB mutants with Hipp-Asp (Example 7); settings: Hipp-Asp 0.25-5.0 mM; pH 7.5; 5 h at 37° C.
Protocol: (§8) Hipp-Glu and Hipp-Asp were diluted in range 0.25-8.0 mM and 0.25-5.0 mM respectively in 0.025 M Tris-HCL buffer, pH 7.5. Where necessary substrate samples were adjusted to pH 7.5 with 1M NaOH.
(§9) Samples were incubated for 5 h at 37° C. Reactions were terminated by the addition of 500 μl methanol/distilled water (80/20) containing 0.2% TFA. The amount of hippuric acid produced was quantified by HPLC as described in Example 6.
(§10) Km and Vmax values were calculated using the ENZFITTER software programme (Biosoft, Perkin Elmer).

[4] = Km and kcat of HCPB mutants with Hipp-Glu (Example 7); settings: Hipp-Glu 0.25-8.0 mM; pH 7.5; 5 h at 37° C.
Protocol: as §8, §9, §10

[5] = Conversion of Hipp-Glu by purified HCPB mutants, 30 minutes, HPLC (Example 17); settings: 0.5 mM substrate, 30 minutes at 37° C.
Protocol: (§11) Purified mutants of human CPB (D253K; [G251K,D253R]; [G251N,D253R]; [I201S,D253K]; [G251N,D253K]; [Q54R,D145A,D253K]; [G251T,D253K]; [G251S,D253K]; [A248N,G251N,D253K]; [A248S,G251N,D253K] and [S205N,G251N,D253K]—described in Examples 3, 12, 13, 16, 28, 30, 31, 32 and 33) were assayed for their ability to convert hippuryl-L-glutamic acid (Hipp-Glu—Reference Example 1), hippuryl-L-aspartic acid (Hipp-Asp—Reference Example 2) and hippuryl-L-arginine (Sigma Chemical Company—cat no. H6625) to hippuric acid using a HPLC based assay similar to that described in Example 6.
(§12) Samples were incubated for 30 minutes at 37° C. The reactions were terminated by the addition of 500 μl of 40% methanol, 60% distilled water, 0.2% trifluoro acetic acid and the amount of hippuric acid generated was quantitated by HPLC as described in Example 6 but using a mobile phase of 20% methanol, 80% 50 mM phosphate buffer, pH 6.5. Hippuric acid was detected at 230 nm. The results are shown in Table 5 and are expressed as the percentage conversion of substrate into product in 30 minutes at 37° C.

[6] = Conversion of Hipp-Asp by purified HCPB mutants, 30 minutes, HPLC (Example 17); settings: 0.5 mM substrate, 30 minutes at 37° C.
Protocol: as §11, §12

[7] = Conversion of Hipp-Arg by purified HCPB mutants, 30 minutes, HPLC (Example 17); settings: 0.5 mM substrate, 30 minutes at 37° C.
Protocol: as §11, §12

[8] = Conversion of Hipp-Glu by periplasmic shockate of HCPB mutants, 24 h (Example 18); settings: 24 h at 37° C.
Protocol: as §7

[9] = Conversion of Hipp-Asp by periplasmic shockate of HCPB mutants, 24 h (Example 18); settings: shockate concentration in reaction mixture 50 %; 24 h at 37° C.
Protocol: as §7

[10] = shockate concentration in reaction mixture 50 %

Row | Molecule | Hipp-Glu, activity relative to D253K HCPB or D253R HCPB [1] | Hipp-Asp, activity relative to D253K HCPB or D253R HCPB [2] | Km [3] | kcat, Hipp-Asp [3] | Km [4] | kcat, Hipp-Glu [4] | Hipp-Glu (% conversion) ([5]; enzyme 1 μg/ml) | Hipp-Glu (% conversion) ([5]; enzyme 25 μg/ml) | Hipp-Asp (% conversion) ([6]; enzyme 1 μg/ml) | Hipp-Asp (% conversion) ([6]; enzyme 25 μg/ml) | Hipp-Arg (% conversion) ([7]; enzyme 1 μg/ml) | Hipp-Arg (% conversion) ([7]; enzyme 25 μg/ml) | Hipp-Glu (% conversion) [8, 10] | Hipp-Asp (% conversion) [9] | Hipp-Glu (% conversion) ([5]; enzyme 0.25 μg/ml) | Hipp-Asp (% conversion) ([6]; enzyme 0.25 μg/ml) | Hipp-Arg (% conversion) ([7]; enzyme 0.25 μg/ml) | Hipp-Glu (% conversion) ([8]; shockate concentration in reaction mixture 1 %)
1 | B1 | b (activity equivalent to D253R HCPB) | b (activity equivalent to D253R HCPB) |  |  |  |  |  |  |  |  |  |  |  |  |  |  |  | 
2 | B2 |  |  | 1700 µM | 0.7 s⁻¹ | 1600 µM | 7.8 s⁻¹ | 16.2% | 96% | 1.2% | 29% | 0% | 0% | 65.4% | 14.6% |  |  |  | 
3 | B3 | e (>10 times the activity of D253K HCPB) |  |  |  |  |  |  | 100% |  | 2.8% |  | 0.8% | 93.8% | 1.6% | 14.5% | 0% | 0% | 5%
